From the Human Domainome abundance scans (Beltran et al. 2025) come the findings set out here.

B1: Far upstream element-binding protein 1, residues 98 to 169; numbered along this chain, Q96AE4 (parent)
chain: RSVMTEEYKVPDGMVGFIIGRGGEQISRIQQESGCKIQIAPDSGGLPERSCMLTGTPESVQSAKRLLDQIVE

± gives the uncertainty stated by the source.

The variants in the data set derive from B1. The data set is described as follows: abundance fitness (aPCA) (normalised: wild type 0, dead -1); higher = more abundant; growth selection in yeast, the domain comes from the species named. The settings on record: Homo sapiens.
Turning to RSVMTLEYKVPDGMVGFIIGRGGEQISRIQQESGCKIQIAPDSGGLPERSCMLTGTPESVQSAKRLLDQIVE [E6L], the abundance fitness is -0.033 ± 0.026.
For RSVMTNEYKVPDGMVGFIIGRGGEQISRIQQESGCKIQIAPDSGGLPERSCMLTGTPESVQSAKRLLDQIVE [E6N], the abundance fitness is -0.177 ± 0.048.
Regarding RSVMTDEYKVPDGMVGFIIGRGGEQISRIQQESGCKIQIAPDSGGLPERSCMLTGTPESVQSAKRLLDQIVE [E6D], the abundance fitness was -0.104 ± 0.04.
For RSVMTHEYKVPDGMVGFIIGRGGEQISRIQQESGCKIQIAPDSGGLPERSCMLTGTPESVQSAKRLLDQIVE [E6H] the value was -0.081 ± 0.046; for RSVMTAEYKVPDGMVGFIIGRGGEQISRIQQESGCKIQIAPDSGGLPERSCMLTGTPESVQSAKRLLDQIVE [E6A], -0.14 ± 0.027.
In the case of RSVMTFEYKVPDGMVGFIIGRGGEQISRIQQESGCKIQIAPDSGGLPERSCMLTGTPESVQSAKRLLDQIVE [E6F], the abundance fitness was -0.081 ± 0.039.
The figure for RSVMTIEYKVPDGMVGFIIGRGGEQISRIQQESGCKIQIAPDSGGLPERSCMLTGTPESVQSAKRLLDQIVE [E6I] is -0.07 ± 0.05.
Turning to RSVMTYEYKVPDGMVGFIIGRGGEQISRIQQESGCKIQIAPDSGGLPERSCMLTGTPESVQSAKRLLDQIVE [E6Y], the abundance fitness is -0.053 ± 0.045.
Take RSVMTKEYKVPDGMVGFIIGRGGEQISRIQQESGCKIQIAPDSGGLPERSCMLTGTPESVQSAKRLLDQIVE [E6K]: the abundance fitness is -0.01 ± 0.032.
Consider RSVMTREYKVPDGMVGFIIGRGGEQISRIQQESGCKIQIAPDSGGLPERSCMLTGTPESVQSAKRLLDQIVE [E6R], for which the abundance fitness was -0.02 ± 0.023.
Turning to RSVMTCEYKVPDGMVGFIIGRGGEQISRIQQESGCKIQIAPDSGGLPERSCMLTGTPESVQSAKRLLDQIVE [E6C], the abundance fitness is -0.085 ± 0.037.
For the variant RSVMTEMYKVPDGMVGFIIGRGGEQISRIQQESGCKIQIAPDSGGLPERSCMLTGTPESVQSAKRLLDQIVE [E7M], the abundance fitness is -0.281 ± 0.25.
RSVMTEAYKVPDGMVGFIIGRGGEQISRIQQESGCKIQIAPDSGGLPERSCMLTGTPESVQSAKRLLDQIVE [E7A]: the abundance fitness is -0.085 ± 0.3.
RSVMTEFYKVPDGMVGFIIGRGGEQISRIQQESGCKIQIAPDSGGLPERSCMLTGTPESVQSAKRLLDQIVE [E7F]: the abundance fitness was -0.153 ± 0.23.
Take RSVMTETYKVPDGMVGFIIGRGGEQISRIQQESGCKIQIAPDSGGLPERSCMLTGTPESVQSAKRLLDQIVE [E7T]: the abundance fitness was -0.031 ± 0.21.
Turning to RSVMTEGYKVPDGMVGFIIGRGGEQISRIQQESGCKIQIAPDSGGLPERSCMLTGTPESVQSAKRLLDQIVE [E7G], the abundance fitness is -0.116 ± 0.14.
Consider RSVMTELYKVPDGMVGFIIGRGGEQISRIQQESGCKIQIAPDSGGLPERSCMLTGTPESVQSAKRLLDQIVE [E7L], for which the abundance fitness is -0.031 ± 0.32.
Regarding RSVMTECYKVPDGMVGFIIGRGGEQISRIQQESGCKIQIAPDSGGLPERSCMLTGTPESVQSAKRLLDQIVE [E7C], the abundance fitness came to 0.061 ± 0.11.
The figure for RSVMTEWYKVPDGMVGFIIGRGGEQISRIQQESGCKIQIAPDSGGLPERSCMLTGTPESVQSAKRLLDQIVE [E7W] is -0.054 ± 0.17; for RSVMTEVYKVPDGMVGFIIGRGGEQISRIQQESGCKIQIAPDSGGLPERSCMLTGTPESVQSAKRLLDQIVE [E7V] it is -0.106 ± 0.14.
RSVMTEEVKVPDGMVGFIIGRGGEQISRIQQESGCKIQIAPDSGGLPERSCMLTGTPESVQSAKRLLDQIVE [Y8V]: the abundance fitness was -0.069 ± 0.029.
For RSVMTEEIKVPDGMVGFIIGRGGEQISRIQQESGCKIQIAPDSGGLPERSCMLTGTPESVQSAKRLLDQIVE [Y8I], the abundance fitness was -0.035 ± 0.044.
With RSVMTEEFKVPDGMVGFIIGRGGEQISRIQQESGCKIQIAPDSGGLPERSCMLTGTPESVQSAKRLLDQIVE [Y8F], the abundance fitness was -0.013 ± 0.047.
In the case of RSVMTEEQKVPDGMVGFIIGRGGEQISRIQQESGCKIQIAPDSGGLPERSCMLTGTPESVQSAKRLLDQIVE [Y8Q], the abundance fitness is -0.2 ± 0.036.
RSVMTEEPKVPDGMVGFIIGRGGEQISRIQQESGCKIQIAPDSGGLPERSCMLTGTPESVQSAKRLLDQIVE [Y8P]: the abundance fitness was -0.798 ± 0.053.
For RSVMTEENKVPDGMVGFIIGRGGEQISRIQQESGCKIQIAPDSGGLPERSCMLTGTPESVQSAKRLLDQIVE [Y8N], the abundance fitness was -0.426 ± 0.049.
On to RSVMTEEKKVPDGMVGFIIGRGGEQISRIQQESGCKIQIAPDSGGLPERSCMLTGTPESVQSAKRLLDQIVE [Y8K], for which the abundance fitness is -0.127 ± 0.039.
On to RSVMTEECKVPDGMVGFIIGRGGEQISRIQQESGCKIQIAPDSGGLPERSCMLTGTPESVQSAKRLLDQIVE [Y8C], for which the abundance fitness is -0.297 ± 0.054.
On to RSVMTEERKVPDGMVGFIIGRGGEQISRIQQESGCKIQIAPDSGGLPERSCMLTGTPESVQSAKRLLDQIVE [Y8R], for which the abundance fitness is -0.216 ± 0.026.
Take RSVMTEEWKVPDGMVGFIIGRGGEQISRIQQESGCKIQIAPDSGGLPERSCMLTGTPESVQSAKRLLDQIVE [Y8W]: the abundance fitness is -0.059 ± 0.033.
With RSVMTEEAKVPDGMVGFIIGRGGEQISRIQQESGCKIQIAPDSGGLPERSCMLTGTPESVQSAKRLLDQIVE [Y8A], the abundance fitness was -0.221 ± 0.03.
Regarding RSVMTEEDKVPDGMVGFIIGRGGEQISRIQQESGCKIQIAPDSGGLPERSCMLTGTPESVQSAKRLLDQIVE [Y8D], the abundance fitness is -0.688 ± 0.057.
RSVMTEEMKVPDGMVGFIIGRGGEQISRIQQESGCKIQIAPDSGGLPERSCMLTGTPESVQSAKRLLDQIVE [Y8M]: the abundance fitness is -0.104 ± 0.037.
For RSVMTEEEKVPDGMVGFIIGRGGEQISRIQQESGCKIQIAPDSGGLPERSCMLTGTPESVQSAKRLLDQIVE [Y8E] the value was -0.535 ± 0.039; for RSVMTEELKVPDGMVGFIIGRGGEQISRIQQESGCKIQIAPDSGGLPERSCMLTGTPESVQSAKRLLDQIVE [Y8L], -0.059 ± 0.03; for RSVMTEEGKVPDGMVGFIIGRGGEQISRIQQESGCKIQIAPDSGGLPERSCMLTGTPESVQSAKRLLDQIVE [Y8G], -0.608 ± 0.03.
For RSVMTEETKVPDGMVGFIIGRGGEQISRIQQESGCKIQIAPDSGGLPERSCMLTGTPESVQSAKRLLDQIVE [Y8T] the value was -0.147 ± 0.037; for RSVMTEEHKVPDGMVGFIIGRGGEQISRIQQESGCKIQIAPDSGGLPERSCMLTGTPESVQSAKRLLDQIVE [Y8H], 0.024 ± 0.045.
